Results on one substance are retold here after PMC13022675.

The assay addresses GFP-tagged MR1A (MR1-GFP) expressed in clonal cell line D6 (D6ins and D6del mutants) (UniProt Q95460).
Sequence of UniProt Q95460 (Q95460 23-341, stated change not applied): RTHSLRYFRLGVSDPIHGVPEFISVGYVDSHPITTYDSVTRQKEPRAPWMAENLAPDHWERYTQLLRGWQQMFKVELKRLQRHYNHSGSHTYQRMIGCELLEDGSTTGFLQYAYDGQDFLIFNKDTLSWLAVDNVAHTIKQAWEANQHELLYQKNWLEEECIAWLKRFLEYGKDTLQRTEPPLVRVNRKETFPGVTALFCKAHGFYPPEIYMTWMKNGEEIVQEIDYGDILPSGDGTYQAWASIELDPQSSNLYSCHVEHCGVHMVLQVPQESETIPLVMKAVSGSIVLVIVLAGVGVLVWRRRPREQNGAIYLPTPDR

Substance “β2-microglobulin (from UniProt P61769 21-119) (natural protein)” registered a fully folded MR1 (antibody clone 26.5) remaining at the cell surface 6 h after brefeldin A, flow cytometry of 20%.
